Test results from PMC8472270.

How the values were obtained:
Exendin-4_F22R [1] = test: concentration-dependent Stokes radius of self-association (method not named in legend); conditions: parent: est. 2.3; read off a plot
Exendin-4_F22R [2] = test: concentration-dependent relative molecular mass of self-association (method not named in legend); conditions: parent: est. 3.2; read off a plot
[3] = molecular target: Exendin-4 (Heloderma suspectum) (UniProt P26349); test: static and dynamic light scattering (SLS/DLS); peptide concentration series in PBS, pH 7.4, 23 °C; scattering angle 90°; relative molecular mass and Stokes radius; monomer to oligomer

Substance Exendin-4 (from UniProt P26349) F22R has an other: Stokes radius RS (Exendin-4_F22R [1]) of 1.6 nm and an other: relative molecular mass Mrel (Exendin-4_F22R [2]) of 0.95.
“Exendin-4 (from UniProt P26349 48-87) (peptide)” was tested, and the stoichiometry N [3] was 3.
